Here are results for six molecules from publication PMC4915676, “Dissociation Dynamics of XPC-RAD23B from Damaged DNA Is a Determining Factor of NER Efficiency”.

What is called Kd is a measure of binding affinity in units of concentration.

Series [1] concerns the target T1, XPC-RAD23B (Homo sapiens, UniProt Q01831;P54727 1-940;1-409). Kind of series: SPR; 5 mM Mg2+; SPR: HBS-P+ (10 mM HEPES, 150 mM NaCl, 0.05% P20), 5 mM MgCl2, 1 mM DTT, 100 ug/mL BSA (+0.5 mM ATP for UvrA), pH and temperature not stated; EMSA: 20 mM Hepes-KOH pH 7.9, 75 mM KCl, 5 mM MgCl2, 1 mM DTT, 5% glycerol, 100 ug/mL BSA, 30 C. Conditions: protein: recombinant; copies: 1;1; label: 5'-biotin on strand 1; blunt.

Series [2] addresses T2, UvrA (UniProt P0A698 1-940).
T2 sequence: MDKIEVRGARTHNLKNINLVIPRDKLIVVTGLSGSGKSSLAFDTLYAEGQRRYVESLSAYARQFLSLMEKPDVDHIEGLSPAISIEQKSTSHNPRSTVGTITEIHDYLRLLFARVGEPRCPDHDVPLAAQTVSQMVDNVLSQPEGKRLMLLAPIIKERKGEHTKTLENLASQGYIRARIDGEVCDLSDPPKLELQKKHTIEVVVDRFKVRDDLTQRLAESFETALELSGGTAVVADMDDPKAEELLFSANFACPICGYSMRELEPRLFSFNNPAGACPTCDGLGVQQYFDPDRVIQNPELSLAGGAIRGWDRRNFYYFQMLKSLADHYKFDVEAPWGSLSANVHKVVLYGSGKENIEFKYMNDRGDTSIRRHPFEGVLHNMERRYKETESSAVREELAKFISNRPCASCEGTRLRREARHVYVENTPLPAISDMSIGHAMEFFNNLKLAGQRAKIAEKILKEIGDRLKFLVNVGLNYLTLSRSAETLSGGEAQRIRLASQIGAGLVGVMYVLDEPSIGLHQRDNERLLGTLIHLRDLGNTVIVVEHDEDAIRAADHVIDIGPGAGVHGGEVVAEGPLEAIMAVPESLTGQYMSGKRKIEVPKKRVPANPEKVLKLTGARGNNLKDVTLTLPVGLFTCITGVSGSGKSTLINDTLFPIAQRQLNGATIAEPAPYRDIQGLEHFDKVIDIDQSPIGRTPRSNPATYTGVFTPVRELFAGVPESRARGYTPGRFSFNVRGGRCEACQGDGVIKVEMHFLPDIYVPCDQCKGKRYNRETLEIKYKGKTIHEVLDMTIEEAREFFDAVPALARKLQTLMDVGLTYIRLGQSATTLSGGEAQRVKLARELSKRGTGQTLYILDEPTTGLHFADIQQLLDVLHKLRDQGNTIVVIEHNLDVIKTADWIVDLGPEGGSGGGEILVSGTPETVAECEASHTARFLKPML
The series can be described thus: SPR; 0.5 mM ATP, 5 mM Mg2+; SPR: HBS-P+ (10 mM HEPES, 150 mM NaCl, 0.05% P20), 5 mM MgCl2, 1 mM DTT, 100 ug/mL BSA (+0.5 mM ATP for UvrA), pH and temperature not stated; EMSA: 20 mM Hepes-KOH pH 7.9, 75 mM KCl, 5 mM MgCl2, 1 mM DTT, 5% glycerol, 100 ug/mL BSA, 30 C. Conditions: protein: recombinant; chain copies: 2; label: 5'-biotin on strand 1; blunt. In general terms: Surface plasmon resonance follows binding to a sensor surface in real time, without labels.

Series [3] concerns the target T1, XPC-RAD23B. Kind of series: SPR; 5 mM Mg2+; error as printed is 0.01e-9; SPR: HBS-P+ (10 mM HEPES, 150 mM NaCl, 0.05% P20), 5 mM MgCl2, 1 mM DTT, 100 ug/mL BSA (+0.5 mM ATP for UvrA), pH and temperature not stated; EMSA: 20 mM Hepes-KOH pH 7.9, 75 mM KCl, 5 mM MgCl2, 1 mM DTT, 5% glycerol, 100 ug/mL BSA, 30 C. Conditions: protein: recombinant; copies: 1;1; label: 5'-biotin on strand 1; blunt.

T1 sequence (Q01831 whole entry, chain 1 of 2): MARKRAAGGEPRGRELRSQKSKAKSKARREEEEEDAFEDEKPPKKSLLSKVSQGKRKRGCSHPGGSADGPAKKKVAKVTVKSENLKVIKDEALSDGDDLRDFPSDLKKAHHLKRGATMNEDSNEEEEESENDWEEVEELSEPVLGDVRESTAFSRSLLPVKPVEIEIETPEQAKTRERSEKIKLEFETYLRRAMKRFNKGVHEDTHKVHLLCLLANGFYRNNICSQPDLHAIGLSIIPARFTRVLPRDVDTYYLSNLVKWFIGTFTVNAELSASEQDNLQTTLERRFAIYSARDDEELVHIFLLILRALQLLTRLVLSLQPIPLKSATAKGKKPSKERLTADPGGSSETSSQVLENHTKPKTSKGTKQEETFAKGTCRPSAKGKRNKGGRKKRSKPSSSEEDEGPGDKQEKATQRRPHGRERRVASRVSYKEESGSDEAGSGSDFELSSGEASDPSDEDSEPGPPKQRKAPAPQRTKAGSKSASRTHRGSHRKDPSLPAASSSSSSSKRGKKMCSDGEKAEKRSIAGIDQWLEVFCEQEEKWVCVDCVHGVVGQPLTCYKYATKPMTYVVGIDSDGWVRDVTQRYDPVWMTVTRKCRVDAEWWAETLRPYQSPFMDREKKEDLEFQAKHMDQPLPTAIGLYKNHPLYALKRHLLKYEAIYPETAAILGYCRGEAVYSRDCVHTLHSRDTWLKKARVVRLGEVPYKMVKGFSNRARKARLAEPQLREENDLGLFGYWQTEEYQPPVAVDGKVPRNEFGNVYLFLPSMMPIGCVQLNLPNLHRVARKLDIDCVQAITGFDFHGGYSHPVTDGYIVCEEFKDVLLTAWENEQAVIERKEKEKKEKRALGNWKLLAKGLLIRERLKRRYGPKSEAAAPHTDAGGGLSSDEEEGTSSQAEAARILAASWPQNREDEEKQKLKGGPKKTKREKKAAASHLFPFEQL
T1 sequence (P54727 whole entry, chain 2 of 2): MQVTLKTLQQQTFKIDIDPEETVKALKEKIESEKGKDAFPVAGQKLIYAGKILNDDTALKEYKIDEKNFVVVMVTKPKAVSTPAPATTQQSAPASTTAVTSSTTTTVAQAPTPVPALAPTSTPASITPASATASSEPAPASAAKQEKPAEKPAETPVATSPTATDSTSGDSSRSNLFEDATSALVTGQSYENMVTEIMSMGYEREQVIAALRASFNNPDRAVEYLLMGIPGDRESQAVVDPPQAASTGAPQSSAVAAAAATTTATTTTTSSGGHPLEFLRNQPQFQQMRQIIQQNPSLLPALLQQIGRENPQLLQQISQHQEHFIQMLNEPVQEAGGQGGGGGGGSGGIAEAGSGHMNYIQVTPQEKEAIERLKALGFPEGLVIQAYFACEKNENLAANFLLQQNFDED

B1: NarI-G1 mono-FAAF 55-mer (dsDNA)
DNA 1: CCACTCCTATCCACCATCCATCTTACTCTCGGCGCCATCACCACTCACCACCACA
DNA 2: TGTGGTGGTGAGTGGTGATGGCGCCGAGAGTAAGATGGATGGTGGATAGGAGTGG
modifications: dG-FAAF at G31 (G1) of strand 1
B1: the Kd in series [1] was determined as 1800 pM; in series [2] it was 1300 pM.

B2: NarI-G3 mono-FAAF 55-mer (dsDNA)
DNA 1: CCACTCCTATCCACCATCCATCTTACTCTCGGCGCCATCACCACTCACCACCACA
DNA 2: TGTGGTGGTGAGTGGTGATGGCGCCGAGAGTAAGATGGATGGTGGATAGGAGTGG
modifications: dG-FAAF at G34 (G3) of strand 1
Take B2: the Kd came out at 1100 pM in series [3] and 3900 pM in series [2].

B3: NarI-G1G3 di-FAAF 55-mer (dsDNA)
DNA 1: CCACTCCTATCCACCATCCATCTTACTCTCGGCGCCATCACCACTCACCACCACA
DNA 2: TGTGGTGGTGAGTGGTGATGGCGCCGAGAGTAAGATGGATGGTGGATAGGAGTGG
modifications: dG-FAAF at G31 and G34 (G1, G3) of strand 1
Consider B3, for which the Kd was found to be 16 pM in series [1] and 270 pM in series [2].

B4: NarI-G2G3 di-FAAF 55-mer (dsDNA)
DNA 1: CCACTCCTATCCACCATCCATCTTACTCTCGGCGCCATCACCACTCACCACCACA
DNA 2: TGTGGTGGTGAGTGGTGATGGCGCCGAGAGTAAGATGGATGGTGGATAGGAGTGG
modifications: dG-FAAF at G32 and G34 (G2, G3) of strand 1
For the molecule B4, the Kd amounted to 4.2 pM in series [1] and 500 pM in series [2].

B5: NarI-G1G2 di-FAAF 55-mer (dsDNA)
DNA 1: CCACTCCTATCCACCATCCATCTTACTCTCGGCGCCATCACCACTCACCACCACA
DNA 2: TGTGGTGGTGAGTGGTGATGGCGCCGAGAGTAAGATGGATGGTGGATAGGAGTGG
modifications: dG-FAAF at G31 and G32 (G1, G2) of strand 1
As for B5, the Kd in series [1] came to 76 pM; in series [2], 490 pM.

B6: NarI-G2 mono-FAAF 55-mer (dsDNA)
DNA 1: CCACTCCTATCCACCATCCATCTTACTCTCGGCGCCATCACCACTCACCACCACA
DNA 2: TGTGGTGGTGAGTGGTGATGGCGCCGAGAGTAAGATGGATGGTGGATAGGAGTGG
modifications: dG-FAAF at G32 (G2) of strand 1
Take B6: the Kd in series [1] was determined as 900 pM; in series [2], 2400 pM.
